B1: endogenous mouse p38γ (protein)
chain: MSSPPPARKGFYRQEVTKTAWEVRAVYQDLQPVGSGAYGAVCSAVDSRTGNKVAIKKLYRPFQSELFAKRAYRELRLLKHMRHENVIGLLDVFTPDESLDDFTDFYLVMPFMGTDLGKLMKHETLSEDRIQFLVYQMLKGLKYIHAAGVIHRDLKPGNLAVNEDCELKILDFGLARQADSEMTGYVVTRWYRAPEVILNWMRYTQTVDIWSVGCIMAEMITGKILFKGNDHLDQLKEIMKITGTPPPEFVQKLQSAEAKNYMEGLPELEKKDFASVLTNASPQAVNLLERMLVLDAEQRVTAAEALTHPYFESLRDTEDEPKAQKYDDSFDDVDRTLEEWKRVTYKEVLSFKPPRQLGARVPKETAL
B2: constitutively active p38γ (p38γ^CA; p38γ Asp179Ala), HA-tagged (protein)
chain: MSSPPPARSGFYRQEVTKTAWEVRAVYRDLQPVGSGAYGAVCSAVDGRTGAKVAIKKLYRPFQSELFAKRAYRELRLLKHMRHENVIGLLDVFTPDETLDDFMDFYLVMPFMGTDLGKLMKHEKLGEDRIQFLVYQMLKGLRDLKPGNLAVNEDCELKILDFGLARQAASEMTGYVVTRWYRAPEVILNWMRYTQTVDIWSVGCIMAEMITGKTLFKGSDHLDQLKEIMKVTGTPPAEFVQRLQSDEAKNYMKGLPELEKKDFASILTNASPLAVNLLEKMLVLDAEQRVTAGEALAHPYFESLHDTEDEPQVQKYDDSFDDVDRTLDEWKRVTYKEVLSFKPPRQLGARVSKETPL

Target: human non-mutant tau (transgene of Alz17 mice), P10636
Sequence (P10636 whole entry, looked up, change not shown): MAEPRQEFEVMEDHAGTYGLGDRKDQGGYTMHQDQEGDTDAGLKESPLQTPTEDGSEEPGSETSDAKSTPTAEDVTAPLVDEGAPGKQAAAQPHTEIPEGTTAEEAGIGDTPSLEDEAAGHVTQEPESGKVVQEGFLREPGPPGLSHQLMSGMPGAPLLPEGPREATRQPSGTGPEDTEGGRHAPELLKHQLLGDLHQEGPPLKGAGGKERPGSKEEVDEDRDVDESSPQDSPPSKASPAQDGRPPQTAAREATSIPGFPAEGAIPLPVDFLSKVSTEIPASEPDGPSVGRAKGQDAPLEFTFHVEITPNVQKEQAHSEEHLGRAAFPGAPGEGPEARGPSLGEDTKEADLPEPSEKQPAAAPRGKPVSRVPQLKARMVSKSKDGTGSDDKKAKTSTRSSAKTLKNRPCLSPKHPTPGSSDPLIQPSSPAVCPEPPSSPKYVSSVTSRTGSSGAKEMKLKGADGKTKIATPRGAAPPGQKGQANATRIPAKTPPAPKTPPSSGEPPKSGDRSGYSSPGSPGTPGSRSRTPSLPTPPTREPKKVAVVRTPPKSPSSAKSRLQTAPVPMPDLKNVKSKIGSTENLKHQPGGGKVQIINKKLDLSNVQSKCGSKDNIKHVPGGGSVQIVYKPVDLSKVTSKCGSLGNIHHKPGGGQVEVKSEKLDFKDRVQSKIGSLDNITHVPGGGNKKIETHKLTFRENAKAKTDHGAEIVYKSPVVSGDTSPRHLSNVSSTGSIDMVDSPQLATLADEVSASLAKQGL

| Protein | Western blotting of synaptosome preparations from mouse brains for pT205 tau | Immunofluorescence staining of brains with antibodies to tau and tau phosphorylated at T205 |
| --- | --- | --- |
| B1 | phosphorylation of tau at T205 was no longer detectable in Alz17.p38γ^-/- mice that also lacked p38γ in their post-synapses |  |
| B2 | increased phosphorylation of tau at T205 in the post-synapse of Alz17.p38γ^CA mice as compared with Alz17.p38γ^+/+ controls | increased T205 tau phosphorylation in Alz17.p38γ^CA mice compared with Alz17 mice |
